The record followed here is paper PMC4741518, “Adaptive Remodeling of the Bacterial Proteome by Specific Ribosomal Modification Regulates Pseudomonas Infection and Niche Colonisation” (PLoS Genetics, 2016).

The target of one assay is T1, RimA (Pseudomonas fluorescens, UniProt A0ACD4XU64).
T1 construct: gene U0037_01330; full-length, His6-tagged (pETM11-rimA), E. coli BL21(DE3) pLysS, Ni-NTA purified
As to the kind of experiment: phosphodiesterase assay, TLC of […]-cdG. To be noted: labelled compound (100 μM cdG with 0.07 μM 32P-cdG); 10 mM MgCl2, pH 8.0, 30 °C; product pGpG. In kind it is biochemical.

Assay [1] concerns the target Ribosomal protein S6 modification protein RimK (P. fluorescens SBW25).

Chain of Ribosomal protein S6 modification protein RimK (P. fluorescens SBW25) (C3KE61 whole entry): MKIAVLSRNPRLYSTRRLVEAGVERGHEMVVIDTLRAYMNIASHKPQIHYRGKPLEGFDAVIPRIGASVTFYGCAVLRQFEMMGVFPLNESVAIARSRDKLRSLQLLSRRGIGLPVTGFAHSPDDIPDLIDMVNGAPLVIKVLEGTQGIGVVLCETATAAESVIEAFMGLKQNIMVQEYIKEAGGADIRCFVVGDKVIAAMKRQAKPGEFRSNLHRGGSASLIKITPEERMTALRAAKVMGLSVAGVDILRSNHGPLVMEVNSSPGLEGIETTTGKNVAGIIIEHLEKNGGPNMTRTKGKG
T1 sequence (A0ACD4XU64 entry or part of it): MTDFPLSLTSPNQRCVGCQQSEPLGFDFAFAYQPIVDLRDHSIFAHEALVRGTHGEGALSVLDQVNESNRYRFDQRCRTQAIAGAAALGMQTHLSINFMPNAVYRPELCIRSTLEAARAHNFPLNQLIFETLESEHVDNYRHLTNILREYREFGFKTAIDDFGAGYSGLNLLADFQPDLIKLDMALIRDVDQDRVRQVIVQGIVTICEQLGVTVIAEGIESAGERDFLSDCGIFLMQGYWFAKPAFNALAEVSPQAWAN

On to `Nc1nc2c(ncn2[C@@H]2O[C@@H]3COP(=O)(O)O[C@H]4[C@@H](O)[C@H](n5cnc6c(=O)[nH]c(N)nc65)O[C@@H]4COP(=O)(O)O[C@H]3[C@H]2O)c(=O)[nH]1` [cdG], for which the “phosphodiesterase assay, TLC of 32P-cdG” value at RimA was “RimA PDE activity was subsequently confirmed (Fig 4C)”.

In turn, “Conserved EAL domain protein RimA (enzyme)” had a RimKPf ATPase activity (linked PK/LDH assay, with glutamate): Vmax on addition of purified RimA; 234.9 without RimA in assay [1] of 364 nmol/min/mg.

Consider “Putative uncharacterized protein RimB (natural protein)”, for which the RimKPf ATPase activity (linked PK/LDH assay, with glutamate): Vmax on addition of purified RimB; 113.6 without RimB in assay [1] is 691 nmol/min/mg.
